Laboratory results taken from patent US20080138349A1 (MacroGenics, published 2008).

T1: FcγRIIB-Fc fusion protein, soluble dimeric: extracellular domain of FcγRIIB fused to the hinge-CH2-CH3 domain … (human, UniProt P31994 43-217, limits assumed)
T1 construct: extracellular domain; also called FcRIIB-Fc; FcR2B; not shown: human IgG2 hinge-CH2-CH3
T1 sequence (looked up): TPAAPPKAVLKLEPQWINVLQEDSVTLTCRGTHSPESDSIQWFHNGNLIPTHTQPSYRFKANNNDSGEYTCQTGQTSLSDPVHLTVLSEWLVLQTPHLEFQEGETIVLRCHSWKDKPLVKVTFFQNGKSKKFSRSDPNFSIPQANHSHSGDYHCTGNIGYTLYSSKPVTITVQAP

T2: 2bfcagl (FcγRIIB-Fc) (UniProt P31994 43-217, limits assumed)
T2 construct: label not explained; may be m4 or an aglycosylated form of it; not shown: Fc part; label fcagl is not explained
T2 sequence (looked up): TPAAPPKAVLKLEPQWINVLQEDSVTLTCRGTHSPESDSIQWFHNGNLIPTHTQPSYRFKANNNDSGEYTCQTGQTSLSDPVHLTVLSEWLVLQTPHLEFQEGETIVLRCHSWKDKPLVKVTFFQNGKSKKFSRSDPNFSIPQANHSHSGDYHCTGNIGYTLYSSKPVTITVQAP

T3: 2aR131Fcagl (FcγRIIA 131R-Fc) (UniProt P12318 34-217, limits assumed)
T3 construct: not shown: Fc part; label Fcagl is not explained
T3 sequence (looked up): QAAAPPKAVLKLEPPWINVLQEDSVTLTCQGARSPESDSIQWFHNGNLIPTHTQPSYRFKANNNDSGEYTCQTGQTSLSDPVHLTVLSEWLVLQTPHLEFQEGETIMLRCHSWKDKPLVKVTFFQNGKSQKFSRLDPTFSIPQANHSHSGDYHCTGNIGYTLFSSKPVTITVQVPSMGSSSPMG

T4: 2aH131Fcagl (FcγRIIA 131H-Fc) (UniProt P12318 34-217, limits assumed)
T4 construct: also called FcγRIIA H131; not shown: Fc part; label Fcagl is not explained
T4 sequence (looked up): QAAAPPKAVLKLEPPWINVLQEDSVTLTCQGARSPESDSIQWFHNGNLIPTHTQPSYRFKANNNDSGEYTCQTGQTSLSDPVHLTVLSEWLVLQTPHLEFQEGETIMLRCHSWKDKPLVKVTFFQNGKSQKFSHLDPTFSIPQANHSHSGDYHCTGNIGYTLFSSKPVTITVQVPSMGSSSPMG


Experiments:
FcγRIIIA [1] = target: T5, FcγRIIIA (UniProt P08637 17-208, limits assumed); test: ELISA
T5 construct: also called CD16A

FcγRIIIA [2] = target: T5, FcγRIIIA; test: ELISA; remark: listed apart in the source
FcγRIIIA [3] = target: T5, FcγRIIIA; test: ELISA; remark: listed apart in the source
[4] = target: T6, soluble monomeric FcγRIIIA, the extracellular region of FcγRIIIA joined to the linker-AVITAG sequence (UniProt P08637 17-208, limits assumed); test: BIAcore
T6 construct: extracellular domain; also called FcRIIIA; FcR3A

[5] = target: T1, FcγRIIB-Fc fusion protein, soluble …; test: BIAcore
[6] = target: T6, soluble monomeric FcγRIIIA, the …; test: BIAcore, antibody captured on BSA-FITC
[7] = target: T1, FcγRIIB-Fc fusion protein, soluble …; test: ELISA of the ch4-4-20 Fc variant for FcγRIIB-Fc fusion protein, value listed beside the sensorgram
FcγRIIIA 158V, soluble = target: T7, FcγRIIIA 158V, soluble (UniProt P08637 17-208, limits assumed); test: BIAcore, 2B6 captured by soluble CD32B
T7 construct: also called 3aV158

FcγRIIIA 158F, soluble = target: T8, FcγRIIIA 158F, soluble (UniProt P08637 17-208, limits assumed); test: BIAcore, 2B6 captured by soluble CD32B
T8 construct: also called 3aF158

2bfcagl (FcγRIIB-Fc) = target: T2, 2bfcagl (FcγRIIB-Fc); test: BIAcore, 2B6 captured by soluble CD32B
[8] = target: T3, 2aR131Fcagl (FcγRIIA 131R-Fc); test: BIAcore, 2B6 captured by soluble CD32B
[9] = target: T4, 2aH131Fcagl (FcγRIIA 131H-Fc); test: BIAcore, 2B6 captured by soluble CD32B
C1q = target: T9, C1q; test: BIAcore, 2B6 captured by soluble CD32B
T9 construct: also called first component of the complement cascade

[10] = target: T1, FcγRIIB-Fc fusion protein, soluble …; test: BIAcore, ch4-4-20

T7 sequence (P08637 17-208 F176V limits assumed): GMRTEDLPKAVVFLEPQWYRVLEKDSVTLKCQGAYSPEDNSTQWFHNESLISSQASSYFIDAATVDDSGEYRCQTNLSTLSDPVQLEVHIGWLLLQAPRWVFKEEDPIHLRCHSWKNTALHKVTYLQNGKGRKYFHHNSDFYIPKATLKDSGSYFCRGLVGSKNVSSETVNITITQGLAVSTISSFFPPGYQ
T6 sequence (P08637 17-208 limits assumed): as the sequence (P08637 17-208 F176V limits assumed) above, with V160F counted along it
T8 sequence (P08637 17-208 limits assumed): as the sequence (P08637 17-208 F176V limits assumed) above, with V160F counted along it
T5 sequence (P08637 17-208 limits assumed): as the sequence (P08637 17-208 F176V limits assumed) above, with V160F counted along it
T9 sequence (P02745 23-245, chain 1 of 3): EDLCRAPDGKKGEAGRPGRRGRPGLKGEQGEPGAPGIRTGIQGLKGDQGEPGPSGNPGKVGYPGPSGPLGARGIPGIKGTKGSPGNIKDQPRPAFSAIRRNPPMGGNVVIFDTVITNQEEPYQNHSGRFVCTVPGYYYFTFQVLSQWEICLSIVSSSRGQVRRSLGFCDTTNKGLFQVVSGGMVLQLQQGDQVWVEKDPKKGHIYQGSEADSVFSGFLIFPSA
T9 sequence (P02746 28-253, chain 2 of 3, further chain): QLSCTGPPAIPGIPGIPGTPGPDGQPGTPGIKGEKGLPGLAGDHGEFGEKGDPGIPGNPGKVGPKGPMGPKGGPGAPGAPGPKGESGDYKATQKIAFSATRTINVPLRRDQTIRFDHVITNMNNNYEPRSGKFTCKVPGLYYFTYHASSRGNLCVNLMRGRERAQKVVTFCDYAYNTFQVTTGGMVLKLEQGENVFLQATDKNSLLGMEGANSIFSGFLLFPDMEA
T9 sequence (P02747 29-245, chain 3 of 3, further chain): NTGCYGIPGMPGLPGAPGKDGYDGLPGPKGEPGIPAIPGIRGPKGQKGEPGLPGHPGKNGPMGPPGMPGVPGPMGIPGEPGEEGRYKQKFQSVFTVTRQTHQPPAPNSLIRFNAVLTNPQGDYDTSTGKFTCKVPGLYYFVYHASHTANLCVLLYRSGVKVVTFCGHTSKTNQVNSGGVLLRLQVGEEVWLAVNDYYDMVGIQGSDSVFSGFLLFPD

| ELISA, OD (FcγRIIIA [3]) | Kd [6] | koff [6] | kon [6] | ELISA, OD [7] | koff (FcγRIIIA 158V, soluble) | koff (FcγRIIIA 158F, soluble) | koff (2bfcagl (FcγRIIB-Fc)) | koff [8] | koff [9] | koff (C1q) | Binder | further results |
| --- | --- | --- | --- | --- | --- | --- | --- | --- | --- | --- | --- | --- |
| 1.1 OD | 75.4 nM | 0.1 s⁻¹ | 1.37e+06 M⁻¹ s⁻¹ | 0.13 OD | – | – | – | – | – | – | ch4-4-20 K288M, K334E (antibody) chain 1: not shown chain 2: DVVMTQTPLSLPVSLGDQASISCRSSQSLVHSNGNTYLRWYLQKPGQSPKVLIYKVSNRFSGVPDRFSGSGSGTDFTLKISRVEAEDLGVYFCSQSTHVPWTFGGGTKLEIKRTVAAPSVFIFPPSDEQLKSGTASVVCLLNNFYPREAKVQWKVDNALQSGNSQESVTEQDSKDSTYSLSSTLTLSKADYEKHKVYACEVTHQGLSSPVTKSFNRGEC | ELISA IIIA binding vs wt (FcγRIIIA [1]): 3 X; ELISA binding increase vs wt (FcγRIIIA [2]): 3 x; Kd [4]: 75.4 nM; koff [4]: 0.1 s⁻¹; Kd [5]: 95.6 nM; koff [5]: 0.089 s⁻¹ |
| 1.25 OD | 70.2 nM | 0.105 s⁻¹ | 1.43e+06 M⁻¹ s⁻¹ | 0.1 OD | – | – | – | – | – | – | ch4-4-20 Mut23 (antibody) chain 1: not shown chain 2: DVVMTQTPLSLPVSLGDQASISCRSSQSLVHSNGNTYLRWYLQKPGQSPKVLIYKVSNRFSGVPDRFSGSGSGTDFTLKISRVEAEDLGVYFCSQSTHVPWTFGGGTKLEIKRTVAAPSVFIFPPSDEQLKSGTASVVCLLNNFYPREAKVQWKVDNALQSGNSQESVTEQDSKDSTYSLSSTLTLSKADYEKHKVYACEVTHQGLSSPVTKSFNRGEC | – |
| – | – | – | – | – | 0.084 s⁻¹ | 0.238 s⁻¹ | 0.094 s⁻¹ | 0.127 s⁻¹ | 0.034 s⁻¹ | – | ch-mAb 2B6 MgFc31/60 (P247L, D270E, N421K) (antibody) ASTKGPSVFPLAPSSKSTSGGTAALGCLVKDYFPEPVTVSWNSGALTSGVHTFPAVLQSSGLYSLSSVVTVPSSSLGTQTYICNVNHKPSNTKVDKKVEPKSCDKTHTCPPCPAPELLGGPSVFLFPPKLKDTLMISRTPEVTCVVVDVSHEEPEVKFNWYVDGVEVHNAKTKPREEQYNSTYRVVSVLTVLHQDWLNGKEYKCKVSNKALPAPIEKTISKAKGQPREPQVYTLPPSRDELTKNQVSLTCLVKGFYPSDIAVEWESNGQPENNYKTTPPVLDSDGSFFLYSKLTVDKSRWQQGKVFSCSVMHEALHNHYTQKSLSLSPGK | – |
| – | – | – | – | – | 0.105 s⁻¹ | 0.296 s⁻¹ | 0.078 s⁻¹ | 0.095 s⁻¹ | 0.024 s⁻¹ | 0.107 s⁻¹ | ch-mAb 2B6 MgFc59/60 (K370E, P396L with D270E) (antibody) ASTKGPSVFPLAPSSKSTSGGTAALGCLVKDYFPEPVTVSWNSGALTSGVHTFPAVLQSSGLYSLSSVVTVPSSSLGTQTYICNVNHKPSNTKVDKKVEPKSCDKTHTCPPCPAPELLGGPSVFLFPPKPKDTLMISRTPEVTCVVVDVSHEEPEVKFNWYVDGVEVHNAKTKPREEQYNSTYRVVSVLTVLHQDWLNGKEYKCKVSNKALPAPIEKTISKAKGQPREPQVYTLPPSRDELTKNQVSLTCLVEGFYPSDIAVEWESNGQPENNYKTTPLVLDSDGSFFLYSKLTVDKSRWQQGNVFSCSVMHEALHNHYTQKSLSLSPGK | – |
| – | – | – | – | – | 0.112 s⁻¹ | 0.293 s⁻¹ | 0.077 s⁻¹ | 0.089 s⁻¹ | 0.028 s⁻¹ | 0.079 s⁻¹ | ch-mAb 2B6 MgFc51/60 (Q419H, P396L with D270E) (antibody) ASTKGPSVFPLAPSSKSTSGGTAALGCLVKDYFPEPVTVSWNSGALTSGVHTFPAVLQSSGLYSLSSVVTVPSSSLGTQTYICNVNHKPSNTKVDKKVEPKSCDKTHTCPPCPAPELLGGPSVFLFPPKPKDTLMISRTPEVTCVVVDVSHEEPEVKFNWYVDGVEVHNAKTKPREEQYNSTYRVVSVLTVLHQDWLNGKEYKCKVSNKALPAPIEKTISKAKGQPREPQVYTLPPSRDELTKNQVSLTCLVKGFYPSDIAVEWESNGQPENNYKTTPLVLDSDGSFFLYSKLTVDKSRWQHGNVFSCSVMHEALHNHYTQKSLSLSPGK | – |
| – | – | – | – | – | – | – | – | – | – | – | ch4-4-20 S298N, K360R, N361D (antibody) EPKSCDKTHTCPPCPAPELLGGPSVFLFPPKPKDTLMISRTPEVTCVVVDVSHEDPEVKFNWYVDGVEVHNAKTKPREEQYNNTYRVVSVLTVLHQDWLNGKEYKCKVSNKALPAPIEKTISKAKGQPREPQVYTLPPSREEMTRDQVSLTCLVKGFYPSDIAVEWESNGQPENNYKTTPPVLDSDGSFFLYSKLTVDKSRWQQGNVFSCSVMHEALHNHYTQKSLSLSPGK | Koff WT/Mut [10]: 0.67 |
